Experiments:
[1] = molecular target: T1, his-tagged human BCMA protein (ACROBiosystems, catalog # BCA-H522y-100 ug) (human, UniProt Q02223 1-54); experiment: SPR (Biacore T200), antibody captured on anti-human Fc chip, his-tagged human BCMA as analyte
T1 construct: limits of the bought construct are not otherwise stated; also called recombinant his-tagged human BCMA; not shown: his tag of the bought protein
T1 sequence: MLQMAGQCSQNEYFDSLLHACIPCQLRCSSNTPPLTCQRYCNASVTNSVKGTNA
Method: Binding kinetics of anti-BCMA antibodies with his-tagged human BCMA protein (ACROBiosystems, catalog # BCA-H522y-100 ug, UniProt Q02223-1, SEQ ID NO:92) was measured using surface plasmon resonance (SPR). Kinetic interactions between the antibodies and his-tagged BCMA proteins were measured at 25° C. using Biacore T200 surface plasmon resonance (GE Healthcare). Anti-human fragment crystallizable region (Fc region) antibody was immobilized on a CM5 sensor chip to approximately 8000 resonance units (RU) using standard N-hydroxysuccinimide/N-Ethyl-N′-(3-dimethylaminopropyl) carbodiimide hydrochloride (NHS/EDC) coupling methodology. The anti-BCMA antibody (2 μg/mL) was captured for 60 seconds at a flow rate of 10 μL/minute. The his-tagged BCMA protein was run at […] different dilutions of 3.12, 6.25, 12.5, 25, 50, 100 and 200 nM, in a running buffer of 0.01 M HEPES pH 7.4, 0.15 M NaCl, 3 mM EDTA, 0.05% v/v Surfactant P20 (HBS-EP+). The 25 nM BCMA protein run was measured two times. All measurements were conducted in HBS-EP+ buffer with a flow rate of 30 μL/minute. A 1:1 (Langmuir) binding model was used to fit the data. […]
Cross reactivity of two of the anti-BCMA antibodies, BCA7-2C5 and BCA7-2E1, with his-tagged human, cynomolgus or mouse BCMA protein were analyzed by SPR in the manner as described above. […]

[2] = molecular target: T1, his-tagged human BCMA protein …; experiment: SPR (Biacore T200), antibody captured on anti-human Fc, his-tagged human BCMA as analyte; fit with ka1/kd1/ka2/kd2 (model not named)
Method: Binding kinetics of anti-BCMA antibodies with his-tagged human BCMA protein (ACROBiosystems, catalog # BCA-H522y-100 ug, UniProt Q02223-1, SEQ ID NO:92) was measured using surface plasmon resonance (SPR). Kinetic interactions between the antibodies and his-tagged BCMA proteins were measured at 25° C. using Biacore T200 surface plasmon resonance (GE Healthcare). Anti-human fragment crystallizable region (Fc region) antibody was immobilized on a CM5 sensor chip to approximately 8000 resonance units (RU) using standard N-hydroxysuccinimide/N-Ethyl-N′-(3-dimethylaminopropyl) carbodiimide hydrochloride (NHS/EDC) coupling methodology. The anti-BCMA antibody (2 μg/mL) was captured for 60 seconds at a flow rate of 10 μL/minute. The his-tagged BCMA protein was run at […] different dilutions of 3.12, 6.25, 12.5, 25, 50, 100 and 200 nM, in a running buffer of 0.01 M HEPES pH 7.4, 0.15 M NaCl, 3 mM EDTA, 0.05% v/v Surfactant P20 (HBS-EP+). The 25 nM BCMA protein run was measured two times. All measurements were conducted in HBS-EP+ buffer with a flow rate of 30 μL/minute. […] The SPR sensorgrams of anti-BCMA antibodies BCA7, GSK J6M0, BC4C9 and BC5C4 are shown in FIGS. 1, 2, 3 and 4, respectively, and their corresponding binding kinetics are listed in Table 3.
Binding kinetics of optimized anti-BCMA antibodies BCA7-2C5, BCA7-2D11, BCA7-2G2, BCA7-2E1, BCA7-2D8 and BCA7-2E8, with his-tagged human BCMA protein (ACROBiosystems, catalog # BCA-H522y-100 ug), were analyzed in the manner as described above.

B1: BCA7-2C5 antibody (antibody, V domains shown)
VH: EVQLVESGGGLVKPGGSLRLSCAASGFTSSTAWMSWVRQAPGKGLEWVGRIKSKSDGGTTDYAAPVKGRFTISRDDSKNTLFLQMNSLKTEDTAVYYCAKGGGTYGYWGQGTTVTVSS
VL: QSALTQPASVSGSPGQSVTISCTGTSSAHGGHYYVSWYQQHPGKAPKLMIYDVSNRPSGVSNRFSGSKSGNTASLTISGLQAEDEADYYCGSYTSSGSYVFGTGTKLTVL
[1]
  Kd: 19.4 nM
[2]
  Kd: 19.4 nM
  ka1: 1.37e+06 M⁻¹ s⁻¹
  ka2: 0.000847 s⁻¹
  kd1: 0.0422 s⁻¹
  kd2: 0.00145 s⁻¹
